Data reported in the supplement of paper PMC7877785.
± gives the uncertainty stated by the source.

Experiment: self-splicing fitness, log relative to wild type (ln ratio); higher = more splicing; Tetrahymena group I intron in knt gene, E. coli kanamycin selection, DiMSum; sequences stand for … in CUCUCU…GGAGGGAAAAGUUAUCAGGCAUGCACCUGGUAGCUAGUCUUUAAACCAAUAGAUUGCAUCGGUUUAAAAGGCAAGACCGUCAAAUUGCGGGAAAGGGGUCAACAGCCGUUCAGUACCAAGUCUCAGGGGAAACUUUGAGAUGGCCUUGCAAAGGGUAUGGUAAUAAGCUGACGGACAUGGUCCUAACCACGCAGCCAAGUCCUAAGUCAACAGAUCUUCUGUUGAUAUGGAUGCAGUUCACAGACUAAAUGUCGGUCGGGGAAGAUGUAUUCUUCUCAUAAGAUAUAGUCGGACCUCUCCUUAAUGGGAGCUAGCGGAUGAAGUGAUGCAACACUGGAGCCGCUGGGAACUAAUUUGUAUGCGAAAGUAUAUUGAUUAGUUUUGGAGUACUCGUGGUCG
Summary of the method: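 Library with all eight P1ex-region intron nucleotides randomised, intron inside the knt kanamycin-resistance gene on pET-22b(+), in E. coli BL21(DE3). Cells grew overnight at 37°C or 30°C on LB agar with or without 25 μg/mL kanamycin (plus 100 μg/mL carbenicillin, 50 μM IPTG, 0.2% rhamnose), in six replicate transformations. Pooled colonies were amplicon-sequenced on Illumina HiSeq 2500. DiMSum fitness is the error-weighted combination of wild-type-normalised replicate fold changes, kanamycin versus none.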

Row | Sequence | self-splicing fitness (ln) (30 °C) | self-splicing fitness (ln) (37 °C)
1 | GCCAAGCAAUAUUACGGCGG | -3.3 ± 0.14 | -1.84 ± 0.16
2 | GCCAAGCAAUAUUACGGCGU | -0.74 ± 0.067 | -0.453 ± 0.1
3 | GCCAAGCAAUAUUACGGCUA | -1.66 ± 0.17 | -1.39 ± 0.15
4 | GCCAAGCAAUAUUACGGGGA | -0.604 ± 0.065 | 0.0408 ± 0.085
5 | GCCAAGCAAUAUUACGGGUG | -0.544 ± 0.049 | -0.591 ± 0.057
6 | GCCAAGCAAUAUUACGGUUC | -2.61 ± 0.16 | -0.763 ± 0.12
7 | GCCAAGCAAUAUUACGUCCA | -2.32 ± 0.18 | 0.44 ± 0.2
8 | GCCAAGCAAUAUUACGUGAU | -0.879 ± 0.053 | 0.385 ± 0.07
9 | GCCAAGCAAUAUUACGUGUA | -1.41 ± 0.068 | -0.64 ± 0.062
10 | GCCAAGCAAUAUUACGUUAC | -2.55 ± 0.12 | -2.39 ± 0.18
11 | GCCAAGCAAUAUUACGUUCA | -2.12 ± 0.11 | -0.947 ± 0.12
12 | GCCCAGCAAUAUUACGAAUG | -4.15 ± 0.24 | -2.26 ± 0.23
13 | GCCCAGCAAUAUUACGAGCU | -3.47 ± 0.19 | -1.89 ± 0.15
14 | GCCCAGCAAUAUUACGAUCC | -0.561 ± 0.13 | -0.336 ± 0.19
15 | GCCCAGCAAUAUUACGAUUC | -1.56 ± 0.074 | -0.274 ± 0.09
16 | GCCCAGCAAUAUUACGCACA | -0.537 ± 0.092 | -0.518 ± 0.094
17 | GCCCAGCAAUAUUACGCAUA | -1.61 ± 0.093 | -0.164 ± 0.088
18 | GCCCAGCAAUAUUACGCGAU | -2.76 ± 0.13 | 0.119 ± 0.1
19 | GCCCAGCAAUAUUACGGACG | -0.702 ± 0.07 | -0.133 ± 0.097
20 | GCCCAGCAAUAUUACGGCUU | -1.29 ± 0.071 | -0.757 ± 0.093
21 | GCCCAGCAAUAUUACGGGGC | -2.87 ± 0.15 | -2.73 ± 0.25
22 | GCCCAGCAAUAUUACGGUAU | -0.47 ± 0.055 | -0.0153 ± 0.068
23 | GCCCAGCAAUAUUACGGUGA | -0.302 ± 0.045 | 0.206 ± 0.056
24 | GCCCAGCAAUAUUACGGUUC | -0.85 ± 0.043 | -0.0899 ± 0.059

Row | Sequence | self-splicing fitness (ln) (30 °C) | self-splicing fitness (ln) (37 °C)
25 | GCCCAGCAAUAUUACGUAAA | -0.596 ± 0.06 | -0.718 ± 0.097
26 | GCCCAGCAAUAUUACGUAUA | -2.1 ± 0.11 | -1.33 ± 0.11
27 | GCCCAGCAAUAUUACGUCCA | -0.999 ± 0.09 | -1.18 ± 0.12
28 | GCCCAGCAAUAUUACGUCUA | -1.37 ± 0.084 | -1.15 ± 0.093
29 | GCCCAGCAAUAUUACGUCUC | -1.3 ± 0.085 | -0.175 ± 0.086
30 | GCCCAGCAAUAUUACGUGAA | -0.204 ± 0.053 | 0.177 ± 0.077
31 | GCCCAGCAAUAUUACGUGAU | -0.455 ± 0.046 | -0.00599 ± 0.065
32 | GCCCAGCAAUAUUACGUGUU | -0.583 ± 0.042 | -0.217 ± 0.054
33 | GCCGAGCAAUAUUACGAAAU | -3.1 ± 0.39 | -1.62 ± 0.41
34 | GCCGAGCAAUAUUACGACCA | -2.62 ± 0.3 | -2.31 ± 0.31
35 | GCCGAGCAAUAUUACGACCC | -2.25 ± 0.34 | -0.208 ± 0.39
36 | GCCGAGCAAUAUUACGAGCA | -1.93 ± 0.11 | -0.944 ± 0.11
37 | GCCGAGCAAUAUUACGCAGC | -3.12 ± 0.29 | -2.22 ± 0.27
38 | GCCGAGCAAUAUUACGCAGU | -2.75 ± 0.33 | -2.25 ± 0.23
39 | GCCGAGCAAUAUUACGCCAA | -1.62 ± 0.43 | 
40 | GCCGAGCAAUAUUACGCCCG | -2.68 ± 0.26 | 
41 | GCCGAGCAAUAUUACGCCCU | -2.8 ± 0.25 | -0.0518 ± 0.2
42 | GCCGAGCAAUAUUACGCGAC | -2.44 ± 0.21 | -2.26 ± 0.35
43 | GCCGAGCAAUAUUACGGGUA | -1.36 ± 0.068 | -0.505 ± 0.068
44 | GCCGAGCAAUAUUACGUAGC | -2.02 ± 0.12 | -1.84 ± 0.14
45 | GCCGAGCAAUAUUACGUAUG | -3.36 ± 0.25 | -3.11 ± 0.38
46 | GCCGAGCAAUAUUACGUGCU | -3.92 ± 0.21 | -2.08 ± 0.15
47 | GCCGAGCAAUAUUACGUGGG | -4.56 ± 0.42 | -2.85 ± 0.27
48 | GCCGAGCAAUAUUACGUUCC | -1.3 ± 0.2 | -0.589 ± 0.25

Row | Sequence | self-splicing fitness (ln) (30 °C) | self-splicing fitness (ln) (37 °C)
49 | GCCGAGCAAUAUUACGUUCU | -1.23 ± 0.1 | -0.97 ± 0.1
50 | GCCGAGCAAUAUUACGUUGC | -3.96 ± 0.25 | -2.73 ± 0.22
51 | GCCGAGCAAUAUUACGUUUA | -2.56 ± 0.17 | 0.181 ± 0.12
52 | GCCUAGCAAUAUUACGACAG | -3.52 ± 0.29 | -2.82 ± 0.28
53 | GCCUAGCAAUAUUACGAGUG | -2.5 ± 0.11 | -0.934 ± 0.099
54 | GCCUAGCAAUAUUACGAUCA | -2.27 ± 0.27 | -2.22 ± 0.18
55 | GCCUAGCAAUAUUACGAUCG | -2.05 ± 0.15 | -1.36 ± 0.18
56 | GCCUAGCAAUAUUACGAUUA | -3.39 ± 0.29 | -1.63 ± 0.18
57 | GCCUAGCAAUAUUACGCACU | -0.602 ± 0.083 | 0.143 ± 0.078
58 | GCCUAGCAAUAUUACGCAGC | -4.41 ± 0.36 | -1.52 ± 0.19
59 | GCCUAGCAAUAUUACGCCCA | -2.69 ± 0.25 | -0.792 ± 0.2
60 | GCCUAGCAAUAUUACGCGAA | -2.72 ± 0.18 | -1.64 ± 0.14
61 | GCCUAGCAAUAUUACGCGUG | -4.17 ± 0.42 | -0.758 ± 0.17
62 | GCCUAGCAAUAUUACGCGUU | -0.166 ± 0.068 | 0.243 ± 0.075
63 | GCCUAGCAAUAUUACGCUAG |  | -2.47 ± 0.3
64 | GCCUAGCAAUAUUACGCUCC | -1.64 ± 0.28 | 0.265 ± 0.2
65 | GCCUAGCAAUAUUACGGAAU | -1.23 ± 0.074 | -0.307 ± 0.093
66 | GCCUAGCAAUAUUACGGCCA | -1.81 ± 0.33 | -1.52 ± 0.35
67 | GCCUAGCAAUAUUACGUACG | -2.67 ± 0.23 | -1.52 ± 0.24
68 | GCCUAGCAAUAUUACGUGCU | -2.06 ± 0.074 | -1.17 ± 0.084
69 | GCCUAGCAAUAUUACGUGGU | -3.71 ± 0.22 | -2.23 ± 0.25
70 | GCCUAGCAAUAUUACGUGUA | -1.55 ± 0.086 | -0.545 ± 0.088
71 | GCCUAGCAAUAUUACGUGUU | -0.926 ± 0.042 | 0.15 ± 0.055
72 | GCCUAGCAAUAUUACGUUUC | -2.03 ± 0.073 | -0.802 ± 0.079

Row | Sequence | self-splicing fitness (ln) (30 °C) | self-splicing fitness (ln) (37 °C)
73 | GCGAAGCAAUAUUACGAAUA | -2.34 ± 0.19 | -1.73 ± 0.24
74 | GCGAAGCAAUAUUACGAGUA | -2.13 ± 0.3 | -1.28 ± 0.19
75 | GCGAAGCAAUAUUACGAUCU | -1.09 ± 0.066 | -0.73 ± 0.079
76 | GCGAAGCAAUAUUACGGCAC | 0.112 ± 0.13 | 0.387 ± 0.17
77 | GCGAAGCAAUAUUACGGUUA | 0.0459 ± 0.22 | -0.871 ± 0.19
78 | GCGAAGCAAUAUUACGUCGG | -2.61 ± 0.21 | -0.565 ± 0.25
79 | GCGAAGCAAUAUUACGUGCA | -1.21 ± 0.13 | -0.452 ± 0.097
80 | GCGAAGCAAUAUUACGUGGC | -3.33 ± 0.39 | -2.35 ± 0.44
81 | GCGAAGCAAUAUUACGUGUA | -1.88 ± 0.093 | -1.09 ± 0.072
82 | GCGAAGCAAUAUUACGUGUC | -4.67 ± 0.46 | -3.21 ± 0.33
83 | GCGAAGCAAUAUUACGUUAC |  | -2.72 ± 0.43
84 | GCGAAGCAAUAUUACGUUCC | -2.43 ± 0.37 | -2.29 ± 0.44
85 | GCGCAGCAAUAUUACGAAUA | -2.09 ± 0.2 | -1.02 ± 0.14
86 | GCGCAGCAAUAUUACGACAG | -3.49 ± 0.17 | -3.05 ± 0.18
87 | GCGCAGCAAUAUUACGACCC | 0.715 ± 0.26 | 0.34 ± 0.27
88 | GCGCAGCAAUAUUACGAUAG | -2.97 ± 0.16 | -0.857 ± 0.12
89 | GCGCAGCAAUAUUACGAUCA | -1.5 ± 0.14 | -0.594 ± 0.15
90 | GCGCAGCAAUAUUACGAUGG | -1.42 ± 0.11 | 0.113 ± 0.16
91 | GCGCAGCAAUAUUACGAUUA | -1.02 ± 0.13 | -1.48 ± 0.13
92 | GCGCAGCAAUAUUACGCCAU | -3.8 ± 0.38 | -1.84 ± 0.3
93 | GCGCAGCAAUAUUACGCCUC | 0.178 ± 0.29 | -1.24 ± 0.29
94 | GCGCAGCAAUAUUACGCUAA | -1.42 ± 0.085 | -1.06 ± 0.11
95 | GCGCAGCAAUAUUACGCUUA | -0.793 ± 0.062 | -0.338 ± 0.067
96 | GCGCAGCAAUAUUACGGAGC | -2.35 ± 0.26 | -2.38 ± 0.49
